This note sets out measurements from US20220289837A1, “Cystic Fibrosis Transmembrane Conductance Regulator Stabilizing Agents” (VIB VZW, priority 2019, published 2022).

For data set [1], the target named is T1, stab-CFTR: 2PT/ΔRI/R1048A_1172X (Homo sapiens, UniProt P13569, A534P/DEL405-436/I539T/R1048A/S492P).
T1 construct: made in house; host or cells: BHK-21 cells (ATCC CCL-10), pNUT vector
Kind of data set: NanoDSF thermostability of stab-CFTR. The data set is classed as binding. Conditions: versus stab-CFTR alone. The procedure: Purified stabilized human CFTR (stab-CFTR: 2PT/ΔRI/R1048A_1172X) was concentrated to 0.5 mg/ml and mixed with 0.1 mg/ml nanobody (^˜[…]) and capillaries were loaded with a volume of 10 The capillaries were placed into trays of Prometheus NT.48 (Nanotemper) and subjected to the fluorescence analysis. The emission of fluorescent radiation with the wavelengths of 330 nm and 350 nm was measured with the temperature changes from 25 to 85° C., with the rate of 1° C. min-1. The first derivative of 350 nm fluorescence was used to determine the melting temperature of the proteins.
(In general: Differential scanning fluorimetry follows unfolding on heating by fluorescence.)

The target of data set [2] is T2, wt-CFTR (Homo sapiens, UniProt P13569). Kind of data set: Flow cytometry on permeabilized BHK-21 cells overexpressing wt-CFTR. Details: expressed in transfected cells. The following applies: compared to negative control nanobody. The data set is classed as cell-based. The procedure: (§1) Parental BHK-21 cells (ATCC; CCL-10) and cells stably overexpressing human wt-CFTR^[43,44,47] or 2PT-F508del-CFTR, as described above, were permeabilized with 0.01% n-Dodecyl-β-D-Maltopyranoside β-DDM—Inalco) at least for 2 h on ice. In the meantime, cells were incubated with 50 μg/ml nanobodies and DRAQ7 (0.3 μM—Biostatus) to monitor the permeabilization state. Nanobody binding was detected by using His-tag specific antibody (Invitrogen, catalogue number MA1-135, 1 μg/ml) or Myc-tag specific antibody (Invitrogen, catalogue number 13-2500, 2 μg/ml) and then anti-mouse-Alexa Fluor 488 (Invitrogen, catalogue number A11001, 1.3 μg/ml) at least for 30 min on ice. Cells were washed one time between each step by centrifugation (200×g for 5 min at 4° C.). All incubations (100 μl) and washes (1.5 ml) were performed in PBS with 6% fetal bovine serum (FBS) and 0.01%13-DDM on ice. Cells fluorescence was measured with Gallios Flow Cytometer (Beckman Coulter). Data were analyzed with Kaluza software.
T2 sequence (P13569 whole entry): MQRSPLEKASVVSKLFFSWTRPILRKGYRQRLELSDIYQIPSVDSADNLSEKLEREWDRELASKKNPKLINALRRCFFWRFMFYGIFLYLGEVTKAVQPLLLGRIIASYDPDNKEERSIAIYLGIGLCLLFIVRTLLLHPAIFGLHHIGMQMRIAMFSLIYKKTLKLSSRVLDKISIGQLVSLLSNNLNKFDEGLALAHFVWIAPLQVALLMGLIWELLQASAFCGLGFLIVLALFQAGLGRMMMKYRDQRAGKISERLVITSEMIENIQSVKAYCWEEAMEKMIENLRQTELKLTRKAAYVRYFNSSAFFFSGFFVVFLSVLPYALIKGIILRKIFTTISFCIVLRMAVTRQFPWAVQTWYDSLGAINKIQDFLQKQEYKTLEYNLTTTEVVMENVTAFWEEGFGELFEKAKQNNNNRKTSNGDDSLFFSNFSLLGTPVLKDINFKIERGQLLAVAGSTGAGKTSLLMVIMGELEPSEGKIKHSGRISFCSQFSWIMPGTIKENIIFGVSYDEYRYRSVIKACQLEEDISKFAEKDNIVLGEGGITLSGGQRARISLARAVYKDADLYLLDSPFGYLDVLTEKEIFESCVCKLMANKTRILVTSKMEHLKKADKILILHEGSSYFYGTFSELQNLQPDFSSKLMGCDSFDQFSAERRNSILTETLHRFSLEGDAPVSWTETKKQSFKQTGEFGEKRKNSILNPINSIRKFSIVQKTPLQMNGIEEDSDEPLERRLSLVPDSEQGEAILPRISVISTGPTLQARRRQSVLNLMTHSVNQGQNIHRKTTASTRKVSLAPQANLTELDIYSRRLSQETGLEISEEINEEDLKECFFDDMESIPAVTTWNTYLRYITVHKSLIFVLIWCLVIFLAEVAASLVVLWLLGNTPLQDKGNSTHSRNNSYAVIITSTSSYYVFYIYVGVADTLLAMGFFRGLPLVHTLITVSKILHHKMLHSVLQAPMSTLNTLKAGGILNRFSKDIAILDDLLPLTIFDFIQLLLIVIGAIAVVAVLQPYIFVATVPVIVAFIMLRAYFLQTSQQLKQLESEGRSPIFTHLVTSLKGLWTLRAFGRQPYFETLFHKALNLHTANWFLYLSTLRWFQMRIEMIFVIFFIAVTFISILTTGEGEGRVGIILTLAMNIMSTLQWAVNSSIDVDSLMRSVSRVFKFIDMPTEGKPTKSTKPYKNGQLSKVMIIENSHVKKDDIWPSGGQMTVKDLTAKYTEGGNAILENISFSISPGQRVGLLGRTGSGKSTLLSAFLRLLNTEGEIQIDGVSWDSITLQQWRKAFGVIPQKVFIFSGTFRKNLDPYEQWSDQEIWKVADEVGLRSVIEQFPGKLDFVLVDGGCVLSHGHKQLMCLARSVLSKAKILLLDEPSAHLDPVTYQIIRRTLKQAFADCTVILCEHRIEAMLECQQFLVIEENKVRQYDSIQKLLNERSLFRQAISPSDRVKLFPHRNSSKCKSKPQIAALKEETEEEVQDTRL
Background: In flow cytometry, cells or beads pass a laser one at a time.

In data set [3] the target is T3, 2PT-NBD1 (Homo sapiens, UniProt P13569, A534P/I539T/S492P/V470M).
T3 construct: 2PT-NBD1 mutants (residues 387-646 containing the mutations S492P, A534P, I539T); His6-SUMO (N, cleaved yes); made in house; host or cells: Escherichia coli BL21(DE3) pLysS
T3 sequence (P13569 388-646 V470M/S492P/A534P/I539T): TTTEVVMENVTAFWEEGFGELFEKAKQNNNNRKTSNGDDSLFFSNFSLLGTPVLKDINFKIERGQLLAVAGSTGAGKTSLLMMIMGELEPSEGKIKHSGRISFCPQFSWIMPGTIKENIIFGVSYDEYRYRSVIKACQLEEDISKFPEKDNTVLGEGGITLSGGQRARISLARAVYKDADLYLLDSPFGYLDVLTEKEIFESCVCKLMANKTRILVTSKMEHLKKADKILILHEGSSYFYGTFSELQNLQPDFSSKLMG
Kind of data set: Isothermal titration calorimetry (ITC) of nanobodies into 2PT-NBD1. The data set is classed as binding. Conditions: 20° C., 2PT-NBD1, mean±SD (n=3). The procedure: Interactions between nanobodies and 2PT-NBD1 was carried out on NanoITC system (TA Instruments) in 0.165 ml cells at 20° C., 300 rpm syringe stirring. Proteins were extensively dialyzed in 20 mM Hepes buffer pH 7.5, 150 mM NaCl, 10% (w/v) glycerol, 10% (w/v) ethylene glycol, 2 mM ATP and 3 mM MgCl2 for 16 h at 4° C. Heat of dilution from control experiments of each nanobody titrated into buffer was subtracted from the titration into 2PT-NBD1. Data were integrated analyzed with Origin 7.0 software (Origin Lab Corp.).
(§2) Affinity constants (KD) and thermodynamic parameters from ITC experiments were determined using one-site binding model with MicroCal Origin 7.0 software (Origin Lab Corp.). Dose response ELISA curves of each Nb binding to either isolated NBD1 or purified FL-CFTR were fitted using the sigmoidal dose-response equation from GraphPad Prism 3. DSC data were analyzed with the MicroCal Origin 7.0 software (Origin Lab Corp.), from which the unfolding temperature (Tm) was obtained.
For orientation: ITC needs no label: the signal is the heat of the interaction.

A further data set concerns parental BHK-21 cells. Kind of data set: Flow cytometry on parental BHK-21 cells. The following applies: compared to negative control nanobody. The data set is classed as cell-based, hamster. The procedure:
as §1

Data set [4] concerns the target T4, F508del-2PT-NBD1 (Homo sapiens, UniProt P13569, A534P/DEL508-508/I539T/S492P/V470M).
T4 construct: His6-SUMO (N, cleaved yes); made in house; host or cells: Escherichia coli BL21(DE3) pLysS
Kind of data set: NBD1 ELISA dose-response, nanobody binding to immobilized F508del-2PT-NBD1. Conditions: F508del-2PT-NBD1 versus 2PT-NBD1. The procedure:
For dose-response assays, Nunc MaxiSorp 96-well plates (ThermoScientific), were coated with 5 μg/ml NeutrAvidin Biotin-Binding protein (ThermoScientific) overnight at 4° C. and blocked 2 h at room temperature (RT) with 2% milk in phosphate-buffered saline (PBS). Each new reagent addition was preceded by three washes with 200 μl of NBD1 buffer (20 mM HEPES pH 7.5, 150 mM NaCl, and 10% (w/v) glycerol, 10% (w/v) ethylene glycol, 2 mM ATP, 3 mM MgCl2). Then, biotinylated purified NBD1 proteins at 5 μg/ml were immobilized 30 min at RT followed by 1 h RT incubation with 100 μl various concentrations (0-20 μg/ml) of purified nanobodies. Signal detection was followed using His-tag specific antibody (Invitrogen, catalogue number: MA1-135, 1:3000 dilution) to detect the nanobodies and secondary antibody anti-mouse coupled to horse radish peroxidase (HRP) (Millipore, catalogue number: AP308P, 1:5000 dilution). 50 μl of 1-Step UltraTMB-ELISA (ThermoScientific) was used as a substrate for the peroxidase and intensity of the reaction was proportional to absorbance measured at 450 nm with SynergyMx (BioTek) after addition of 50 μl H2SO4 at 1M.
as §2

The target in data set [5] is T2, wt-CFTR. Kind of data set: CFTR pull-down from solubilized BHK-21 cells with immunoblot. The data set is classed as binding. Details: expressed in transfected cells. The following applies: immunoblot with mAb 596. The procedure: Human wt-CFTR was extracted from BHK-21 cells pellet by solubilization with 1% DMNG in PBS with proteases inhibitors for 1 h at 4° C. The cells debris were removed by centrifugation (16,000×g for 30 min at 4° C.). Supernatant was diluted 10 times in PBS with proteases inhibitors plus 10 mM imidazole and incubated at least for 30 min on HisPur Ni-NTA Resin (Thermo Scientific) pre-loaded with nanobodies. Resin was washed with 40 column volumes of PBS with 300 mM NaCl. Nanobodies were eluted with 200 mM imidazole in PBS. Presence of CFTR in each sample was detected by SDS-PAGE and immuno-blotting.
Cell extracts were separated by SDS-PAGE on 7.5% polyacrylamide gel and transferred to nitrocellulose membrane (Bio-Rad) for immunodetection. After blocking for 1 h with 5% bovine serum albumin (BSA) in Tris-buffered saline added 0.05% Tween-20 (TBST), CFTR was detected using monoclonal antibody mAb 596, IgG2b (CFTR Antibody Distribution Program, dilution 1:46) for 1 h in blocking buffer. Blot was washed 3 times 5 min and incubated with anti-mouse-HRP antibody (Millipore, catalogue number: AP308P, 0.2 μg/ml) for 1 h in TBST. Membrane was washed 3 times for 5 min. CFTR was visualized by chemiluminescence using Luminata Forte Western HRP Substrate (Millipore) and detected with ImageQuant 400 (GE Healthcare).

Data set [6] addresses T3, 2PT-NBD1. Kind of data set: Thermal shift assay (DSF) of 2PT-NBD1. Conditions: versus isolated 2PT-NBD1. Format: binding. How it is done: (§3) Solutions of either 2PT-NBD1 or F508del-2PT-NBD1 (10 μM final concentration), nanobodies (30 μM final concentration) and 2.5× or 5× concentrated SYPRO Orange Protein Stain (Molecular Probes) diluted in 20 mM HEPES pH 7.5, 150 mM NaCl, 3 mM MgCl2, 2 mM ATP and 10% (w/v) glycerol, 10% (w/v) ethylene glycol, were added to the wells of a 96-well PCR plates type BR white (VWR) in a final volume of 25 μl. Plates were sealed with EasySeal sheets (Molecular dimensions) and spun 2 min at 900× g. SYPRO orange fluorescence was monitored in CFX96 Touch Real-Time PCR Detection System (Bio-Rad) using FRET scan mode from 10 to 80° C. in increments of either 1° C. or 0.2° C.

Data set [7] has as its target T4, F508del-2PT-NBD1. Kind of data set: Thermal shift assay (DSF) of F508del-2PT-NBD1. The data set is classed as binding. How it is done: as §3

T4 sequence (P13569 with tags, fused parts or gaps V470M/S492P/DEL508-508/A534P/I539T limits assumed): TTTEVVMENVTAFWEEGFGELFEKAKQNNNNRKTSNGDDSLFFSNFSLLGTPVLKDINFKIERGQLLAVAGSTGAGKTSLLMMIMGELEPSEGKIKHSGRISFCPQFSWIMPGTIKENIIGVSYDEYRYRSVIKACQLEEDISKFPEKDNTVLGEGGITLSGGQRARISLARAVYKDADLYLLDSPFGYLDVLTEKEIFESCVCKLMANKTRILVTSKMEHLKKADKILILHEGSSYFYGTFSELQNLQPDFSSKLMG
T1 sequence (P13569 with tags, fused parts or gaps DEL405-436/S492P/A534P/I539T/R1048A limits assumed): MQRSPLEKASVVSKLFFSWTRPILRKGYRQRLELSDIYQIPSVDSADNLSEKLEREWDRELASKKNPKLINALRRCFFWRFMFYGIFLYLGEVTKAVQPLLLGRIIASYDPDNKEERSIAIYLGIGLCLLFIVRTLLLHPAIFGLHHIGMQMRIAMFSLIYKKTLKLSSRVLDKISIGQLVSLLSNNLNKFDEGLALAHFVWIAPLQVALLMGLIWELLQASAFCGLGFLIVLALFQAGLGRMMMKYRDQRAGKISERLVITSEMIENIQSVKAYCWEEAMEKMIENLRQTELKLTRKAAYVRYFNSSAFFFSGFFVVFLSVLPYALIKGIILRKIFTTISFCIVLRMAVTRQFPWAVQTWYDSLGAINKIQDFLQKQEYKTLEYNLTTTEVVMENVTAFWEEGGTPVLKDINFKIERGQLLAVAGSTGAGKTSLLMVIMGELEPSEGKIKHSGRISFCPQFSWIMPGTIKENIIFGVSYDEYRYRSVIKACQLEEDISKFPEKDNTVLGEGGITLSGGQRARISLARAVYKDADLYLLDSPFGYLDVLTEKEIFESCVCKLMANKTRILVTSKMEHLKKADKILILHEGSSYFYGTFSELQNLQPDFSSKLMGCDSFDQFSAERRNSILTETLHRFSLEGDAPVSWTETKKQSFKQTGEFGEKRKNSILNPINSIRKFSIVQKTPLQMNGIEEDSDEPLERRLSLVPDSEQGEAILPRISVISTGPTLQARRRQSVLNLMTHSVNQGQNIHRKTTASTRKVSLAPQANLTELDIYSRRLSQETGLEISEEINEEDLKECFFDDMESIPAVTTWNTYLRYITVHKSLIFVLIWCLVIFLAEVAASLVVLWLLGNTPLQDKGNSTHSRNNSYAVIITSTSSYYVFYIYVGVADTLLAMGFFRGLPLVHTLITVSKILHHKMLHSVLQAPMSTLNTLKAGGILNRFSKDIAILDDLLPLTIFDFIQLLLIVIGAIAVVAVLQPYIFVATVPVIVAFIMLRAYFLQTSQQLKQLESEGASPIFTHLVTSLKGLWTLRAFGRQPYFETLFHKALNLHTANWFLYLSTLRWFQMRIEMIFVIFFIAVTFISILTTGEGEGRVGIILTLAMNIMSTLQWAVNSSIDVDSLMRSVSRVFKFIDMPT

B1: T4: nanobody, SEQ ID NO:6, binds epitope 2 including F508, stabilizes wild type CFTR (protein)
VHH: QVQLQESGGGLVQAGGSLRLSCAASGSTFAIIAMGWYRQAPGKQRELVAVISTGDTRYADSVKGRFTISRDNAKNTVYLQMDSLRPEDTAVYYCNAAVQVRDYRNYWGQGTQVTVSS
modifications: T4 Nanobody amino acid sequence
Regarding B1, the “thermostabilization of stab-CFTR (Tm increase)” value in data set [1] amounted to 8 °C. Further, the “labelling of BHK-21 cells overexpressing wt-CFTR” value in the data set with wt-CFTR [2] is recorded as “increased labelling”. Besides, binding in the data set with 2PT-NBD1 [3] was put at a Kd of 37.9 ± 7 nM. For the same molecule, in the data set with parental BHK-21 cells, the “labelling of parental BHK-21 cells” value is recorded as “no difference in labelling”. In addition, in the data set with F508del-2PT-NBD1 [4], the “effect of F508del mutation on binding” value was “drastically affected”. Further, in the data set with wt-CFTR [5], the “pull-down of cellular CFTR, electrophoresis pattern (mature band C)” value was “also observed”. The “increase of Tm of 2PT-NBD1” value in the data set with 2PT-NBD1 [6] turned out to be 12.5 °C. For the same molecule, the “stabilization of F508del-2PT-NBD1” value with F508del-2PT-NBD1 [7] is recorded as “did not stabilize”.
